Experimental data as given in the supplement of paper PMC7125110.
± gives the standard error. For part of these data: Variants at the floor of the assay were thinned out.

B1: glmS ribozyme (parent)
chain: AUAAAAGCGCCAGAACUACAGAAAUGUAGUUGACGAGGAGGAGGUUUAUCGAAUUUUCGGCGGAUGCCUCCAAA

How the values were obtained:
Conditions in all cases: with glucosamine-6-phosphate
[1] = variants of: B1; test: kcat; higher = faster cleavage; RNA array
Procedure, shortened: (§1)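 The measurements used barcoded ribozyme variants on sequenced MiSeq chips, transcribed in situ by E. coli RNA polymerase and tracked at 37 °C with a hybridised Cy3 probe. Glucosamine-6-phosphate, 40 μM to 10 mM in HEPES/KCl/Mg(OAc)2 buffer, was flowed in while tiles were imaged over ~14 h. Baseline-normalised signals, also normalised to non-cleaving reference variants, gave per-tile medians that were fit to one- or two-exponential decays for kobs. kcat and KM resulted from weighted Michaelis–Menten fits across concentrations.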

[2] = variants of: B1; test: KM; higher = weaker cofactor use; RNA array
Procedure, shortened: as §1

[3] = variants of: B1; test: self-cleavage kobs at 40 uM GlcN6P; higher = faster cleavage; RNA array
Procedure, shortened: as §1

[4] = variants of: B1; test: self-cleavage kobs at 160 uM GlcN6P; higher = faster cleavage; RNA array
Procedure, shortened: as §1

[5] = variants of: B1; test: self-cleavage kobs at 640 uM GlcN6P; higher = faster cleavage; RNA array
Procedure, shortened: as §1

[6] = variants of: B1; test: self-cleavage kobs at 2500 uM GlcN6P; higher = faster cleavage; RNA array
Procedure, shortened: as §1

[7] = variants of: B1; test: self-cleavage kobs at 10000 uM GlcN6P; higher = faster cleavage; RNA array
Procedure, shortened: as §1

| Variant | kcat [1] [s⁻¹] | KM [2] [µM] | self-cleavage kobs at 40 uM GlcN6P [3] [s⁻¹] | self-cleavage kobs at 160 uM GlcN6P [4] [s⁻¹] | self-cleavage kobs at 640 uM GlcN6P [5] [s⁻¹] | self-cleavage kobs at 2500 uM GlcN6P [6] [s⁻¹] | self-cleavage kobs at 10000 uM GlcN6P [7] [s⁻¹] |
| --- | --- | --- | --- | --- | --- | --- | --- |
| A12C G40U | 0.00214 ± 0.00032 | 2490 ± 550 | 4.4e-05 ± 6.1e-06 | 0.000109 ± 1.2e-05 | 0.000471 ± 5e-05 | 0.0012 ± 0.00012 | 0.00165 ± 0.00013 |
| G43U C68G | 0.00617 ± 0.0012 | 527 ± 180 | 0.000533 ± 9.6e-05 | 0.00129 ± 0.00028 | 0.00304 ± 0.00052 | 0.00416 ± 0.0011 | 0.00756 ± 0.0013 |
| G32C U54G | 9.47e-05 ± 8e-06 | 2550 ± 810 | – | – | – | 5.12e-05 ± 1.5e-05 | 7.5e-05 ± 8.5e-06 |
| A14G G29C | 0.000331 ± 6.9e-05 | 1330 ± 540 | – | 6.33e-05 ± 1.1e-05 | 9.55e-05 ± 8.8e-06 | 0.000253 ± 2.6e-05 | 0.00028 ± 2.9e-05 |
| U55G C67A | 0.000773 ± 0.00021 | – | 0.000267 ± 4.8e-05 | 0.000394 ± 8.8e-05 | 0.000772 ± 0.00013 | – | – |
| U54G G59C | < 1e-05 | – | – | – | < 1e-05 | – | – |
| U55G C58G | 0.000161 ± 1.7e-05 | 6790 ± 1400 | – | – | – | 4.5e-05 ± 8.6e-06 | 9.57e-05 ± 1.1e-05 |
| G29C C71U | 0.00146 ± 0.0004 | 1590 ± 700 | 6.23e-05 ± 7.6e-06 | 0.000119 ± 1.8e-05 | 0.000356 ± 4.9e-05 | 0.000805 ± 9.7e-05 | 0.00143 ± 0.00015 |
| A53C U56G | 0.00299 ± 0.00066 | 1830 ± 570 | 7.77e-05 ± 1.1e-05 | 0.000166 ± 4.2e-05 | 0.000851 ± 0.00012 | 0.00165 ± 0.00035 | 0.00254 ± 0.00039 |
| A12C C50U | 0.000203 ± 3.3e-05 | 4750 ± 1100 | – | – | – | 7.01e-05 ± 1.5e-05 | – |
| A33U C67U | 4.33e-05 ± 9.7e-06 | – | – | – | 3.39e-05 ± 1.5e-05 | 2.49e-05 ± 6.9e-06 | 4.16e-05 ± 7.3e-06 |
| G37U U54C | – | 2230 ± 960 | – | – | – | – | – |
| A39G C71U | – | 370 ± 140 | 0.00144 ± 0.00017 | 0.00396 ± 0.00059 | 0.00783 ± 0.0012 | 0.0119 ± 0.0027 | 0.0284 ± 0.0069 |
| U54G U56A G63U | – | 1560 ± 740 | – | – | – | – | – |
| A36U A53U | – | 148 ± 37 | – | – | – | – | – |
| G38U U65G | – | 107 ± 46 | – | – | – | – | – |
| A12C A36U | – | 56.2 ± 26 | – | – | – | – | – |
| G62A G63U | – | 359 ± 79 | – | – | – | – | – |
| A52C U65G | – | 197 ± 67 | – | – | – | – | – |
| A64C C67U | – | 657 ± 190 | – | – | – | – | – |
| A15U U46G G51U | – | 56.5 ± 15 | – | – | – | – | – |
| C16U G66A | – | 1520 ± 640 | 0.000448 ± 9.7e-05 | 0.00133 ± 0.00023 | 0.00417 ± 0.00068 | 0.00873 ± 0.0019 | 0.0329 ± 0.014 |
| G41U A52C | – | 3260 ± 480 | – | – | – | – | – |

| Variant | kcat [1] [s⁻¹] | KM [2] [µM] | self-cleavage kobs at 40 uM GlcN6P [3] [s⁻¹] | self-cleavage kobs at 160 uM GlcN6P [4] [s⁻¹] | self-cleavage kobs at 640 uM GlcN6P [5] [s⁻¹] | self-cleavage kobs at 2500 uM GlcN6P [6] [s⁻¹] | self-cleavage kobs at 10000 uM GlcN6P [7] [s⁻¹] |
| --- | --- | --- | --- | --- | --- | --- | --- |
| G29A A64U | – | 593 ± 20 | – | – | – | – | – |
| A12C U31A C34U A36C A52G C58A G63U | – | – | < 1e-05 | – | – | – | < 1e-05 |
| C8G G40U | – | – | < 1e-05 | – | < 1e-05 | < 1e-05 | < 1e-05 |
| A14C A36C C61G | – | – | < 1e-05 | – | – | – | – |
| G59C C61G | – | – | < 1e-05 | < 1e-05 | – | – | < 1e-05 |
| A14G G51C | – | – | < 1e-05 | – | < 1e-05 | – | < 1e-05 |
| G32A A33C | – | – | < 1e-05 | < 1e-05 | – | – | – |
| C10U U45G | – | – | < 1e-05 | < 1e-05 | < 1e-05 | – | < 1e-05 |
| G35C G66C | – | – | < 1e-05 | < 1e-05 | < 1e-05 | < 1e-05 | < 1e-05 |
| G7U C34U | – | – | < 1e-05 | – | – | < 1e-05 | – |
| A52G U54G C61G | – | – | < 1e-05 | – | – | – | – |
| U56A C67U | – | – | 0.000175 ± 1.9e-05 | 0.000452 ± 6.1e-05 | 0.000938 ± 8.9e-05 | 0.00474 ± 0.00085 | 0.00679 ± 0.0012 |
| C8G G43A G59A G60U | – | – | < 1e-05 | – | – | – | – |
| C16G G63A | – | – | < 1e-05 | – | – | – | < 1e-05 |
| A12U U47C G60A | – | – | < 1e-05 | – | – | – | < 1e-05 |
| U55G U65A C67A | – | – | 6.53e-05 ± 1.8e-05 | – | – | – | 9.95e-05 ± 3e-05 |
| C10G G29A U54G | – | – | < 1e-05 | – | – | – | – |
| C10G U65A | – | – | < 1e-05 | – | < 1e-05 | – | < 1e-05 |
| G32U C34G | – | – | < 1e-05 | < 1e-05 | < 1e-05 | – | < 1e-05 |
| G13C U49G | – | – | < 1e-05 | < 1e-05 | < 1e-05 | – | – |
| G44C U65C | – | – | < 1e-05 | < 1e-05 | < 1e-05 | – | < 1e-05 |
| C8G G37C | – | – | < 1e-05 | – | < 1e-05 | – | < 1e-05 |
